Source: patent publication US20250179138

System: ACP11 (human p40/murine p35 IL-12 fusion protein)

active MMP9 (Sigma catalog #SAE0078-50 or Enzo catalog BML-SE360), sequence (chain, as listed by the source): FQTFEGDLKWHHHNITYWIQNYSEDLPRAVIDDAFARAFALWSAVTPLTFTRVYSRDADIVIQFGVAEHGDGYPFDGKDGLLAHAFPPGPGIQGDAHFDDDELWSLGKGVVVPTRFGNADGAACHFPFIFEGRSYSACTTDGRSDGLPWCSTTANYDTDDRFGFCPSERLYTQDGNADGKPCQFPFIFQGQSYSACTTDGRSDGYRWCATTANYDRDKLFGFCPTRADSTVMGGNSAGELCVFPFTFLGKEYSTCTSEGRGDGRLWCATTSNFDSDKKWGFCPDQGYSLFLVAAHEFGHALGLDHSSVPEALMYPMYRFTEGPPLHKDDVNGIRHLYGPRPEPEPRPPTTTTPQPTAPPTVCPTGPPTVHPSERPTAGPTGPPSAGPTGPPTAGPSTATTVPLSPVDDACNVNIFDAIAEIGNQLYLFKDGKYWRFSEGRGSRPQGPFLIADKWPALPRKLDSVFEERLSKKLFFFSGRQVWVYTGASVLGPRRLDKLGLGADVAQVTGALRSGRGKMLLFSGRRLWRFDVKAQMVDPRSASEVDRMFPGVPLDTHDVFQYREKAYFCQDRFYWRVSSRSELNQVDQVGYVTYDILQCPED

## active MMP9 (Sigma catalog #SAE0078-50 or Enzo catalog BML-SE360)
  protein cleavage assay, extent of cleavage monitored by SDS PAGE: the ACP11 fusion protein was cleaved by MMP9 protease
